The values below come from article PMC2572730, “Structural Basis for the Recognition of Histone H4 by the Histone-Chaperone RbAp46” (Structure(London, England:1993), 2008).

As usually defined, the stoichiometry N is the number of molecules, sites or subunits per partner or assembly.

The target of the test is histone H3 (Xenopus laevis, recombinant full length) (Xenopus laevis) (UniProt P84233). Nature of the test: cross-linking; BS3 crosslinker in 1.1 M NaCl, 20 mM HEPES (pH 7.5), 10 mM DTT; ~10 uM RbAp46, H3/H4 or RbAp46/H3/H4; room temperature, 30 min; NuPAGE, Coomassie and blots with anti-H3 and anti-H4.

For the substance “histone H3 (Xenopus laevis, recombinant full length) (from UniProt P84233 1-136) (natural protein)”, the stoichiometry N came to 2.
